Measured values taken from patent US11130793B2, “GLP-1/GLP-2 dual agonists” (Zealand Pharma A/S, priority 2016, dated 2021).
Square brackets hold non-standard residues; d marks the D form. Aib = CC(C)(N)C(=O)O

B1: Compound 24 (peptide)
peptide: H-H[Aib]EGSFTSELATILDEQAARDFIAWLQAHKITD-OH
SMILES: CC[C@H](C)[C@H](NC(=O)[C@H](Cc1ccccc1)NC(=O)[C@H](CC(=O)O)NC(=O)[C@H](CCCNC(=N)N)NC(=O)[C@H](C)NC(=O)[C@H](C)NC(=O)[C@H](CCC(N)=O)NC(=O)[C@H](CCC(=O)O)NC(=O)[C@H](CC(=O)O)NC(=O)[C@H](CC(C)C)NC(=O)[C@@H](NC(=O)[C@@H](NC(=O)[C@H](C)NC(=O)[C@H](CC(C)C)NC(=O)[C@H](CCC(=O)O)NC(=O)[C@H](CO)NC(=O)[C@@H](NC(=O)[C@H](Cc1ccccc1)NC(=O)[C@H](CO)NC(=O)CNC(=O)[C@H](CCC(=O)O)NC(=O)C(C)(C)NC(=O)[C@@H](N)Cc1c[nH]cn1)[C@@H](C)O)[C@@H](C)O)[C@@H](C)CC)C(=O)N[C@@H](C)C(=O)N[C@@H](Cc1c[nH]c2ccccc12)C(=O)N[C@@H](CC(C)C)C(=O)N[C@@H](CCC(N)=O)C(=O)N[C@@H](C)C(=O)N[C@@H](Cc1c[nH]cn1)C(=O)N[C@@H](CCCCN)C(=O)N[C@H](C(=O)N[C@H](C(=O)N[C@@H](CC(=O)O)C(=O)O)[C@@H](C)O)[C@@H](C)CC
B2: Compound 28 (peptide)
peptide: H-H[Aib]EGSFTSELATILDEQAARDFIAWLYAHKITD-OH
SMILES: CC[C@H](C)[C@H](NC(=O)[C@H](Cc1ccccc1)NC(=O)[C@H](CC(=O)O)NC(=O)[C@H](CCCNC(=N)N)NC(=O)[C@H](C)NC(=O)[C@H](C)NC(=O)[C@H](CCC(N)=O)NC(=O)[C@H](CCC(=O)O)NC(=O)[C@H](CC(=O)O)NC(=O)[C@H](CC(C)C)NC(=O)[C@@H](NC(=O)[C@@H](NC(=O)[C@H](C)NC(=O)[C@H](CC(C)C)NC(=O)[C@H](CCC(=O)O)NC(=O)[C@H](CO)NC(=O)[C@@H](NC(=O)[C@H](Cc1ccccc1)NC(=O)[C@H](CO)NC(=O)CNC(=O)[C@H](CCC(=O)O)NC(=O)C(C)(C)NC(=O)[C@@H](N)Cc1c[nH]cn1)[C@@H](C)O)[C@@H](C)O)[C@@H](C)CC)C(=O)N[C@@H](C)C(=O)N[C@@H](Cc1c[nH]c2ccccc12)C(=O)N[C@@H](CC(C)C)C(=O)N[C@@H](Cc1ccc(O)cc1)C(=O)N[C@@H](C)C(=O)N[C@@H](Cc1c[nH]cn1)C(=O)N[C@@H](CCCCN)C(=O)N[C@H](C(=O)N[C@H](C(=O)N[C@@H](CC(=O)O)C(=O)O)[C@@H](C)O)[C@@H](C)CC
B3: Compound 26 (peptide)
peptide: H-H[Aib]EGTFTSELATILDEQAARDFIAWLQAQKITD-OH
SMILES: CC[C@H](C)[C@H](NC(=O)[C@H](Cc1ccccc1)NC(=O)[C@H](CC(=O)O)NC(=O)[C@H](CCCNC(=N)N)NC(=O)[C@H](C)NC(=O)[C@H](C)NC(=O)[C@H](CCC(N)=O)NC(=O)[C@H](CCC(=O)O)NC(=O)[C@H](CC(=O)O)NC(=O)[C@H](CC(C)C)NC(=O)[C@@H](NC(=O)[C@@H](NC(=O)[C@H](C)NC(=O)[C@H](CC(C)C)NC(=O)[C@H](CCC(=O)O)NC(=O)[C@H](CO)NC(=O)[C@@H](NC(=O)[C@H](Cc1ccccc1)NC(=O)[C@@H](NC(=O)CNC(=O)[C@H](CCC(=O)O)NC(=O)C(C)(C)NC(=O)[C@@H](N)Cc1c[nH]cn1)[C@@H](C)O)[C@@H](C)O)[C@@H](C)O)[C@@H](C)CC)C(=O)N[C@@H](C)C(=O)N[C@@H](Cc1c[nH]c2ccccc12)C(=O)N[C@@H](CC(C)C)C(=O)N[C@@H](CCC(N)=O)C(=O)N[C@@H](C)C(=O)N[C@@H](CCC(N)=O)C(=O)N[C@@H](CCCCN)C(=O)N[C@H](C(=O)N[C@H](C(=O)N[C@@H](CC(=O)O)C(=O)O)[C@@H](C)O)[C@@H](C)CC
B4: Compound 31 (peptide)
peptide: H-H[Aib]EGSFTSELATILDGKAARDFIAWLIAHKITD-OH
SMILES: CC[C@H](C)[C@H](NC(=O)[C@H](CC(C)C)NC(=O)[C@H](Cc1c[nH]c2ccccc12)NC(=O)[C@H](C)NC(=O)[C@@H](NC(=O)[C@H](Cc1ccccc1)NC(=O)[C@H](CC(=O)O)NC(=O)[C@H](CCCNC(=N)N)NC(=O)[C@H](C)NC(=O)[C@H](C)NC(=O)[C@H](CCCCN)NC(=O)CNC(=O)[C@H](CC(=O)O)NC(=O)[C@H](CC(C)C)NC(=O)[C@@H](NC(=O)[C@@H](NC(=O)[C@H](C)NC(=O)[C@H](CC(C)C)NC(=O)[C@H](CCC(=O)O)NC(=O)[C@H](CO)NC(=O)[C@@H](NC(=O)[C@H](Cc1ccccc1)NC(=O)[C@H](CO)NC(=O)CNC(=O)[C@H](CCC(=O)O)NC(=O)C(C)(C)NC(=O)[C@@H](N)Cc1c[nH]cn1)[C@@H](C)O)[C@@H](C)O)[C@@H](C)CC)[C@@H](C)CC)C(=O)N[C@@H](C)C(=O)N[C@@H](Cc1c[nH]cn1)C(=O)N[C@@H](CCCCN)C(=O)N[C@H](C(=O)N[C@H](C(=O)N[C@@H](CC(=O)O)C(=O)O)[C@@H](C)O)[C@@H](C)CC
B5: Compound 1 (peptide)
peptide: H-H[Aib]EGSFTSELATILDEQAARDFIAWLIAHKITD-OH
SMILES: CC[C@H](C)[C@H](NC(=O)[C@H](CC(C)C)NC(=O)[C@H](Cc1c[nH]c2ccccc12)NC(=O)[C@H](C)NC(=O)[C@@H](NC(=O)[C@H](Cc1ccccc1)NC(=O)[C@H](CC(=O)O)NC(=O)[C@H](CCCNC(=N)N)NC(=O)[C@H](C)NC(=O)[C@H](C)NC(=O)[C@H](CCC(N)=O)NC(=O)[C@H](CCC(=O)O)NC(=O)[C@H](CC(=O)O)NC(=O)[C@H](CC(C)C)NC(=O)[C@@H](NC(=O)[C@@H](NC(=O)[C@H](C)NC(=O)[C@H](CC(C)C)NC(=O)[C@H](CCC(=O)O)NC(=O)[C@H](CO)NC(=O)[C@@H](NC(=O)[C@H](Cc1ccccc1)NC(=O)[C@H](CO)NC(=O)CNC(=O)[C@H](CCC(=O)O)NC(=O)C(C)(C)NC(=O)[C@@H](N)Cc1c[nH]cn1)[C@@H](C)O)[C@@H](C)O)[C@@H](C)CC)[C@@H](C)CC)C(=O)N[C@@H](C)C(=O)N[C@@H](Cc1c[nH]cn1)C(=O)N[C@@H](CCCCN)C(=O)N[C@H](C(=O)N[C@H](C(=O)N[C@@H](CC(=O)O)C(=O)O)[C@@H](C)O)[C@@H](C)CC
B6: Compound 25 (peptide)
peptide: H-H[Aib]EGSFTSELATILDEQAARDFIAWLIAQKITD-OH
SMILES: CC[C@H](C)[C@H](NC(=O)[C@H](CC(C)C)NC(=O)[C@H](Cc1c[nH]c2ccccc12)NC(=O)[C@H](C)NC(=O)[C@@H](NC(=O)[C@H](Cc1ccccc1)NC(=O)[C@H](CC(=O)O)NC(=O)[C@H](CCCNC(=N)N)NC(=O)[C@H](C)NC(=O)[C@H](C)NC(=O)[C@H](CCC(N)=O)NC(=O)[C@H](CCC(=O)O)NC(=O)[C@H](CC(=O)O)NC(=O)[C@H](CC(C)C)NC(=O)[C@@H](NC(=O)[C@@H](NC(=O)[C@H](C)NC(=O)[C@H](CC(C)C)NC(=O)[C@H](CCC(=O)O)NC(=O)[C@H](CO)NC(=O)[C@@H](NC(=O)[C@H](Cc1ccccc1)NC(=O)[C@H](CO)NC(=O)CNC(=O)[C@H](CCC(=O)O)NC(=O)C(C)(C)NC(=O)[C@@H](N)Cc1c[nH]cn1)[C@@H](C)O)[C@@H](C)O)[C@@H](C)CC)[C@@H](C)CC)C(=O)N[C@@H](C)C(=O)N[C@@H](CCC(N)=O)C(=O)N[C@@H](CCCCN)C(=O)N[C@H](C(=O)N[C@H](C(=O)N[C@@H](CC(=O)O)C(=O)O)[C@@H](C)O)[C@@H](C)CC

Biological target: human glucagon-like peptide 1 receptor (GLP-1R) (human, UniProt P43220)
Experiment: cell-based or functional assay

**Q.** With B1 as the binder, how does the “EC50 GLP-1 (nM); cAMP AlphaScreen” value read?
**A.** 0.042 nM

**Q.** With B2 as the binder, how does the “EC50 GLP-1 (nM); cAMP AlphaScreen” value read?
**A.** 0.11 nM

**Q.** For H-H[Aib]EGTFTSELSTILDEQAARDFIAWLHAQKITD-OH (not fully specified; printed as Hy-H[Aib]EGTFTSELSTILDEQAARDFIAWLHAQKITD-OH) [Compound 27], which “EC50 GLP-1 (nM); cAMP AlphaScreen” value is on record?
**A.** 0.12 nM

**Q.** With H-H[Aib]EGSFTSELATILDEQAARDFIAWLYRHKITD-OH (not fully specified; printed as Hy-H[Aib]EGSFTSELATILDEQAARDFIAWLYRHKITD-OH) [Compound 30] as the binder, how does the “EC50 GLP-1 (nM); cAMP AlphaScreen” value read?
**A.** 0.1 nM

**Q.** Which “EC50 GLP-1 (nM); cAMP AlphaScreen” value does the source give for B3 here?
**A.** 0.013 nM

**Q.** B4 was tested. Which “EC50 GLP-1 (nM); cAMP AlphaScreen” value did it give?
**A.** 0.02 nM

**Q.** H-H[Aib]EGTFTDELATILDEQAARDFIAWLQAQKITD-OH (not fully specified; printed as Hy-H[Aib]EGTFTDELATILDEQAARDFIAWLQAQKITD-OH) [Compound 29] was tested. Which “EC50 GLP-1 (nM); cAMP AlphaScreen” value did it give?
**A.** 0.044 nM

**Q.** With B5 as the binder, how does the “EC50 GLP-1 (nM); cAMP AlphaScreen” value read?
**A.** 0.014 nM

**Q.** With B6 as the binder, how does the “EC50 GLP-1 (nM); cAMP AlphaScreen” value read?
**A.** 0.008 nM

Biological target: T1, human GLP-2 receptor (hGLP2-R) (human, UniProt O95838)
T1 sequence: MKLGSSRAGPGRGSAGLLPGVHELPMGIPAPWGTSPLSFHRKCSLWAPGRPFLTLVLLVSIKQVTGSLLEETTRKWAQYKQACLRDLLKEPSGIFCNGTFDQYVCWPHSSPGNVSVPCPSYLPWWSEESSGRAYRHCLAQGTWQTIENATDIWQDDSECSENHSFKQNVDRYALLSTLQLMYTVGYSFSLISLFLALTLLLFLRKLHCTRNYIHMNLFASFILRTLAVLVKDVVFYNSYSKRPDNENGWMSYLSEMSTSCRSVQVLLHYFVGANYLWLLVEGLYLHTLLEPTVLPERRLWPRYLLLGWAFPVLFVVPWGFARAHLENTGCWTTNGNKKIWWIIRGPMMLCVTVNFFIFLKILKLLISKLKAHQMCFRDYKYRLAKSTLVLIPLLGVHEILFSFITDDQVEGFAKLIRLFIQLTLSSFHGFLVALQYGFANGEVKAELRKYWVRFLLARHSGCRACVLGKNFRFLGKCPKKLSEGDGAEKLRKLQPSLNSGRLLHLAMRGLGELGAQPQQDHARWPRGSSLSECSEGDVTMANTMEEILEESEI
Experiment: cell-based or functional assay

**Q.** For B1, which “EC50 GLP-2 (nM); cAMP AlphaScreen” value is on record?
**A.** 0.049 nM

**Q.** For B2, which “EC50 GLP-2 (nM); cAMP AlphaScreen” value is on record?
**A.** 0.024 nM

**Q.** For H-H[Aib]EGTFTSELSTILDEQAARDFIAWLHAQKITD-OH (not fully specified; printed as Hy-H[Aib]EGTFTSELSTILDEQAARDFIAWLHAQKITD-OH) [Compound 27], which “EC50 GLP-2 (nM); cAMP AlphaScreen” value is on record?
**A.** 0.37 nM

**Q.** How did the “EC50 GLP-2 (nM); cAMP AlphaScreen” value turn out when H-H[Aib]EGSFTSELATILDEQAARDFIAWLYRHKITD-OH (not fully specified; printed as Hy-H[Aib]EGSFTSELATILDEQAARDFIAWLYRHKITD-OH) [Compound 30] was run?
**A.** 0.034 nM

**Q.** With B3 as the binder, how does the “EC50 GLP-2 (nM); cAMP AlphaScreen” value read?
**A.** 0.19 nM

**Q.** With B4 as the binder, how does the “EC50 GLP-2 (nM); cAMP AlphaScreen” value read?
**A.** 0.078 nM

**Q.** Which “EC50 GLP-2 (nM); cAMP AlphaScreen” value does the source give for H-H[Aib]EGTFTDELATILDEQAARDFIAWLQAQKITD-OH (not fully specified; printed as Hy-H[Aib]EGTFTDELATILDEQAARDFIAWLQAQKITD-OH) [Compound 29] here?
**A.** 0.11 nM

**Q.** How did the “EC50 GLP-2 (nM); cAMP AlphaScreen” value turn out when B5 was run?
**A.** 0.036 nM

**Q.** How did the “EC50 GLP-2 (nM); cAMP AlphaScreen” value turn out when B6 was run?
**A.** 0.062 nM
